One may read the pKd as the negative decadic logarithm of the Kd, by convention in mol/L.

pKd: −log10 of the molar value.

The source of these data is publication PMC3585325.

In the assay the target is recombinant human IGF2R extracellular domains 1–15, biotinylated CD4 (domains 3 and 4) fusion protein (human) (UniProt P11717). The assay can be described thus: SPR; BIAcore T200; 1800 RU biotinylated IGF2R fusion protein immobilised on a streptavidin-loaded CM5 chip; IGF2 256 to 0.125 nM injected for 200 s at 40 µL/min, 25°C, HBS-EP buffer; kinetic fit to a 1:1 binding model and steady state analysis. For orientation: SPR reads the build-up and loss of mass on a sensor chip optically.

Regarding recombinant mouse IGF2 (ligand), the pKd was 8.22 to 8.52.
As to recombinant human IGF2 (ligand), the pKd was 8.40 to 9.00.
